Reference: the domain aggregation screens of Martell et al. (2025)

assay: soluble fraction after stress (log2 fold change); higher = more stays soluble; pooled small domains, quantitative proteomics; settings: stress: 75 degC
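Also: 20 min heating vs room temperature control held 20 min.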

Sequence | soluble fraction (log2)
HMPKHHIESVIPENFAGERLDKVLAVLWGTFSRAQLTRWIRDGSLLLDGHKVKPNTKVDGSEKIVLQAEVA | -1.27
HMPKNEHETKAIGNQTGGRVFLFLNTDNINRDYNMYISKQVKFVREISQEYYGKVAVFEDLYGNLWDLIE | 0.0316
HMPKNRTDYVQDVLKSLGRPAHYKEITQIINAMLPKEAQYSAKSIQVVLGSSPLFIRVGTGTYALVE | -1.73
HMPKNVEVPNVVGLSLPMAKLRLTQLGLHIVVRDSVWSETGQPNTILDQDPQPGKKIKPESTVYVKVN | -1.48
HMPKRYAGPDIIAIYGSDVFFRVGSGDGLMVIPVGRSMDNIEVVSVDAPRSVELMWKDGGPFTVPV | 0.145
HMPKSKTPDDAAEEFRTAFSALDMDGKVTVKDMAEYMGVIDKTVYARLKKMGDEFTLDKGVITKKT | -0.104
HMPKTATIVIDLNYADAKEIVENLQTILAGETKDISVAPHPSANQIIASGDRWEVENISTIIKQLDR | 0.26
HMPKTLTEAAYEDIKQWILEGEITPGSKISLEDTASRLEVSMTPIREALTKLQQEGLVEYIPRAGWRASK | -0.0907
HMPLAQRFGLTVAQARVLDLLAEGRSNRQIGELLGLTEGTVKIHVSAIMKAMGVSNRAEAALMANRKR | -1.7
HMPLDKDTTLDEIYRRFNMEHPADYKGHSLSMGDIVVFRQDGKQTAYYVDEGADYRQVPEFFVK | -0.0344
HMPLDPFVVDALRDEIINTIKQHEPRVDLQKVQVQPIYTQNRVNISVQYKIVGLPIVEDITFVLQRP | 0.39
HMPLEKGVVILDVTPSSAKVAVDGTSVETTYPLRLSAGLHQLSAEADGYDSITEYFKVETEKTTVTLDLSK | 0.236
HMPLEQAELRLDLKQAILQMDRQTQELLLLRYVDGLSPGEAGKVLELSRFAVYRREKEALRKLRDYFSH | -1.93
HMPLLSEWDAALEELWAKLGDVPMDPETERMDAPFLGFPAGTPREDIWHWFDERHSKGVAHLLYG | -2.46
HMPLQYRLTVQPTPTNARVRLVNSAFTYRPGVALPPGSYIVEVSSSGYGAKRQAVQIADGDVTVPVELEKI | -0.582
HMPLYKYYTSYQIEPGDTLTSIAQKYTINSDVSVQDYIDEVKKNNNLVSDKINSGSYLVVSYYSNEY | -1.36
HMPNIQLARNLKYLRLAYGLTQDDLGAFLNISRQAYSNYENLKRSPDLDSLIRLASLYHLSLDDLVSR | -3.31
HMPNTLAGIERYLGSGMVKGIGPVYASRLVSAFGTAVFDVIEQTPERLREIDGIGEKRTRKITSGWADQ | -0.213
HMPNYIDAISALLTLKGVGDRKHASTMANILNLQYNSAKQKLDGKRGITLDEVKKVFQYFNEPF | -1.44
HMPPAPGHDLTEREREVLRLLVEGLSNQEISDRLVISQSTVKNHVSSVLSKLDAANRAEAVALALKNQL | 0.0595
HMPPELSDEVMEEAMSYLKNQYLNHGVKLEDYPALNKLFVDEAFRSEVIRKTQSNYKISYQSAMASLD | 0.355
HMPPENVSVRREQIAEDKKTVYNVWVTKGNKTVLYSKVVYAWGGVYFFRDLNTSISENMYKQADAGLVN | 0.00373
HMPPGQIVNEALQRAGNSTPTGTAISAQDDIKLYTSALAELATQGDTSSASVAKLREALQTAQVAFYNAV | 0.201
HMPPITIVPNDNGVPIIRSQTPEISTAVNVELKAAGINTHTIDGTSIRVPKAQAQVAQQIVSRVNTRFT | 0.151
HMPPNHADLKSSGLKATLPRLKILEIFQNSQVRHLSAEDVYKLLLAENLDVGLATVYRVLTQFEQAGL | -0.522
HMPPNRDDEHLQALRDYYAANRRIPSLQRVASLLGFSSRSAAVKLMGRLADEGFIERTADDDAWITGKRFF | -1.34

Sequence | soluble fraction (log2)
HMPPNVLSEREQEVLQLAADGMSNKEMGSELYIAPTTVRDHMQSIMRKLQVNSRTAAAVAGLKLGLLD | -0.452
HMPPPTLVESAYNHLKADIISSYLKPDEKINLKDLSQRYQVSETPIKQALNRLISEGLIISVPRKGMWVH | 0.0697
HMPPPVERAIRKLGHDLSLARRRRRISQDSMAQRMGASVSTVRRIEKGDPRIPIHFIARAMMILGDLKAL | 0.0447
HMPQFDRQAFGQRLRLLRDYREMTQQQVANFLNVDRSTYSYYENGKTEPSITVLMRMAELFSVTLDSLLNM | -3.92
HMPQIDLYPFEVRIEQDNNAAEYAVRFLDVPNIIGSGASIDEAIVEARGNLKEYLDYLIDTNRDIPLPS | -0.339
HMPQISQDDLMEAGLIVGKEAKQRRIKLGEILGIGYVNAKQLPKRLQLFQVAKSDFEQAVQQIDG | -0.218
HMPQKSDLTMEEYNKLGLAGGSGSRKLREQVGIRLSVGYGNSKQFYNRLHTFGISLDELKTAVEEVKNG | 0.226
HMPQNVSVPDVTNMTQAEAESKLKEKNLAVGNIIPELSTTVEKDKVTRTNPESGSNVRKNSKVDIYVSQG | 0.154
HMPQPDVIEVRQGIVTGMRPDRRTGWLRDEEDAAGEPKSFSIDVITPKGRTPGKGAVVTYTLTNGKITEVK | -0.047
HMPRELKVRDVSHQHAGHAGWREGGETHFEVDMKADVFAGTSRVAAHRMVNKVLANELASRVHALQLNLS | 0.0164
HMPRENLAYTLIMDGIVQHKNLPRASVTEAWLKQELQKAGINDFRQVLIAGIDSKGQLYFQPKQK | ≥ 1.04
HMPRPLVAPMPGLIVRVTAVVGDSVDAGQGLVVMEAMKMENELRTTTAGVVKTVHVQPGVAVEKGALLIEF | -0.827
HMPRTEILMVDEEMEGERLDAFVAEQLDELSRSLVKTLIENGEIRVDGKQQKPSYRLKAGEEIIVEIPA | 0.439
HMPSDTNLIGKTGIAYTTLRPGGTALIDDRKVDVVADSEYIEKDKKIKVIRVEGIKVVVTAVK | 0.164
HMPSGRIRWFDAKKGYGFIAGDDGKDVFLPQTALPQGVRNPRKGAKVEYSVIEGNRGQVAMGVTMV | -0.331
HMPSHALFWTLLKEVPGYDPHYKDVIKEGIVHEHSGGRTTSLSEMYTKYPREYSLMIEAMKG | -0.475
HMPSKTFYNLSQEKQQKIIDASEKEFSNNLYQDVSLNQIIKNSNISRGSFYMYFTDKEDLYFYLLNEY | -0.731
HMPSLGADIRALRKSRKMTLVALADALGRSVGWLSQVERDKSHATIADLGRMAEVLDVSISSFL | -0.273
HMPSLSAILHDARVAAGLSMRQASAASGLSIGFISMLEQGKVQDISLQRLGRLVTAYDLEPLDVIEAAG | -1.83
HMPSSAYGPYKNVFLSNSELTKLKNELPTSWEHYINRLSEYMRSTGRQYQSHAATILRWAATDRNS | -0.488
HMPSSFLVKVTADALNIRSGPGVANRITGTIKDKGTYTIVDTKDDWGKLKSGVGWIHLGYTKRLD | -0.857
HMPSSQQVMRRLATVGPDKTLEELQRQHDAHLRKYGEFNDFRGERQQMRQEMERIKEAKQGTGPYAHLMG | 0.025
HMPTAGYMTVTPDRVKEGQQFLATLRPPYVLKADGLAAGKGVLILPELEEAQRELEEMLGGFLGELSVNR | 0.136
HMPTERLSMRRIRELLRLRFEVGLSTRLIATALGISKGAVGDYLQRAQVAGLGWPLPENLNDAALERRLFP | -1.38
HMPTGRVVIPLNRLTASDVARILDEAYGRDHNFEVVKPSRLAKGIIVIGPKSEIDGIKELLAH | -0.829
HMPTLLGYKHILSAWNPDTNTVFRTSYGYDGEYGSREEAMQALIKMIQEGGKATPRGIEESEVPIY | -0.238

Sequence | soluble fraction (log2)
HMPTLSKVGSQGEEVRQIQTKLKNWGYLNDRVDGIYGPKTRDAVIWFQKKNGLVADGIAGPATLKAMGIFT | -0.142
HMPTMVAQINEIVQAKLPGSGLKDYTIRLVESQRDGVVVWVNGTRYLGVDEVAEPQVQALLKEAVAEWERS | -0.462
HMPTQGELAILRVLWEQGPSTVRAVWEKLNSQSGTGYTTALKLMQIMAQKGLVSRDESQKTHVYRA | -1.54
HMPTTRPEAEAHYETHQRYHDLQIDVEGREAFKVATGSLTLVQEFDEKDDYDLSIPTPRSPAILLTT | -0.0329
HMPVFYVTGNRVNFRAGPSTGDRVIGSLSQGAAVEVLGPTDDAWINIRDSDGRVGYMSAQFLSQ | 0.355
HMPVLDETVPAALDGERIDRVVALLADVSRNRAGIAIAAGSVRLDGAVVTQRSRKVRADEELVVDGLER | 0.107
HMPVNEEFKRLIDKIKYEFSINQAQISERLGVKSTYLSDMINGRVPYNESMQKKIHEVFHIG | -0.424
HMPVNGEFIERIKVMVLENKAKGKKERLTKTRMHQLLQEEGYKGSYSAFTHQVRIIEEELGVNQKEAH | -0.48
HMPVSRMRARHEALARGVMGIHAGGFSAVYGYRKVWHGLIGKGWDPGEVGRDQVMNIMRGLGMQGVRR | -0.132
HMPVSVAEQKQILAEALQERGHATFRELIENADNRMIVVGRFLALLELYRDGTVRFEQERALGELTIHWEE | -2.07
HMPYIVNHIHLKSEDPKITADWFVKAFNFEIVSDVVRHFGDRFIVTKAEGGMTINISGVRDGEEL | 0.141
HMPYNNLADAPASWKKLDDTPLTLGQVNWIAKIYDALVAKGMEKGAAAGTAISRFKKSFKVADGKWVQV | -0.478
HMPYNRRYLISNADGALYTVEENGLVKLEETNLTAELFETRGMQDIPDGKLLITLHDPTILYWHDSENLFP | -1.5
HMPYSPTPGSAPARLIAHLQEHGDSVNRTAIAELLQVDRKNVHNYLARAVTHGLLLRHGGGAYSLP | 0.0908
HMQADEENPKYPVITDGVIQLEVLESIDKTEEWLVERLAKDGYNNVSEIFIAEYENGNLSIVT | 0.0913
HMQADPYTVLGVLRDVTDGELKREYRKLVREHHPDALIAQGVPQEFVDIANNKLAVINAAYERIAKQRGL | -0.154
HMQAGILTDTAAKNARIKKIDTERLEAELDQKRIVIVTGFQGVDRNQNITTLGRGGSDTSAVALAAAVSIT | 0.171
HMQAKDVEIPNFVGKTLAEANADNKDNFNFVVESKYDASKELGVILEQEPAADSKLVKSGSQITLKV | ≥ 1.04
HMQALDNNDALEEIIKKVITENPSQVTEFRNGKDSLMNFLVGKVMAASGGKANPKTLPETIEKIIK | 0.277
HMQAMDYEGFKKEILKMSDIDLSLYKEKQMKRRIDSLIRKNGYEHYEDYVQALKQDSGLYNEFINYLTI | 0.571
HMQANLPFSELLADVDRGLISDVTIKGDQVSGHYTDGRTFNTFIPPEADLVRRLTEKNVRIAAVPD | -0.113
HMQAPAFDYSKVQEGVTVNHKIFGDGTVSWIDKARKYIRVQFSVGEKMFTMETAFVQGFLSL | -1.19
HMQAPVDPIVLGKMGSSYGIRGWLRVFSSTEDAESIFDYQPWFIQKAGQWQQVQLESWKHHNQDMIIKLN | 0.2
HMQARLPFSFAKRHGVILLAATGEGQSDVIYKSGFDIGALAEVRRFVAGEIALKEVDGPSFDRQLTLTYQN | -2
